# In PMC2475608:
# B1: EcoR124I HsdR subunit, wild type (enzyme)
# chain: MTHQTHTIAESNNFIVLDKYIKAEPTGDSYQSESDLERELIQDLRNQGYEFISVKSQSAMLANVREQLQNLNGVVFNDSEWRRFTEQYLDNPSDGILDKTRKIHIDYICDFIFDDERLENIYLIDKKNLMRNKVQIIQQFEQAGSHANRYDVTILVNGLPLVQIELKKRGVAIREAFNQIHRYSKESFNSENSLFKYLQLFVISNGTDTRYFANTTKRDKNSFDFTMNWAKSDNTLIKDLKDFTATCFQKHTLLNVLVNYSVFDSSQTLLVMRPYQIAATERILWKIKSSFTAKNWSKPESGGYIWHTTGSGKTLTSFKAARLATELDFIDKVFFVVDRKDLDYQTMKEYQRFSPDSVNGSENTAGLKRNLDKDDNKIIVTTIQKLNNLMKAESDLPVYNQQVVFIFDECHRSQFGEAQKNLKKKFKRYYQFGFTGTPIFPENALGSETTASVFGRELHSYVITDAIRDEKVLKFKVDYNDVRPQFKSLETETDEKKLSAAENQQAFLHPMRIQEITQYILNNFRQKTHRTFPGSKGFNAMLAVSSVDAAKAYYATFKRLQEEAANKSATYKPLRIATIFSFAANEEQNAIGEISDETFDTSAMDSSAKEFLDAAIREYNSHFKTNFSTDSNGFQNYYRDLAQRVKNQDIDLLIVVGMFLTGFDAPTLNTLFVDKNLRYHGLMQAFSRTNRIYDATKTFGNIVTFRDLERSTIDAITLFGDKNTKNVVLEKSYTEYMEGFTDAATGEAKRGFMTVVSELEQRFPDPTSIESEKEKKDFVKLFGEYLRAENILQNYDEFATLKALQQIDLSDPVAVEKFKAEHYVDDEKFAELQTIRLPADRKIQDYRSAYNDIRDWQRREKEAEKKEKSTTDWDDVVFEVDLLKSQEINLDYILGLIFEHNRQNKGKGEMIEEVKRLIRSSLGNRAKEGLVVDFIQQTNLDDLPDKASIIDAFFTFAQREQQREAEALIKEENLNEDAAKRYIRTSLKREYATENGTELNETLPKLSPLNPQYKTKKQAVFQKIVSFIEKFKGVGGKI
# B2: EcoR124I HsdR Y183A (enzyme)
# chain: MTHQTHTIAESNNFIVLDKYIKAEPTGDSYQSESDLERELIQDLRNQGYEFISVKSQSAMLANVREQLQNLNGVVFNDSEWRRFTEQYLDNPSDGILDKTRKIHIDYICDFIFDDERLENIYLIDKKNLMRNKVQIIQQFEQAGSHANRYDVTILVNGLPLVQIELKKRGVAIREAFNQIHRASKESFNSENSLFKYLQLFVISNGTDTRYFANTTKRDKNSFDFTMNWAKSDNTLIKDLKDFTATCFQKHTLLNVLVNYSVFDSSQTLLVMRPYQIAATERILWKIKSSFTAKNWSKPESGGYIWHTTGSGKTLTSFKAARLATELDFIDKVFFVVDRKDLDYQTMKEYQRFSPDSVNGSENTAGLKRNLDKDDNKIIVTTIQKLNNLMKAESDLPVYNQQVVFIFDECHRSQFGEAQKNLKKKFKRYYQFGFTGTPIFPENALGSETTASVFGRELHSYVITDAIRDEKVLKFKVDYNDVRPQFKSLETETDEKKLSAAENQQAFLHPMRIQEITQYILNNFRQKTHRTFPGSKGFNAMLAVSSVDAAKAYYATFKRLQEEAANKSATYKPLRIATIFSFAANEEQNAIGEISDETFDTSAMDSSAKEFLDAAIREYNSHFKTNFSTDSNGFQNYYRDLAQRVKNQDIDLLIVVGMFLTGFDAPTLNTLFVDKNLRYHGLMQAFSRTNRIYDATKTFGNIVTFRDLERSTIDAITLFGDKNTKNVVLEKSYTEYMEGFTDAATGEAKRGFMTVVSELEQRFPDPTSIESEKEKKDFVKLFGEYLRAENILQNYDEFATLKALQQIDLSDPVAVEKFKAEHYVDDEKFAELQTIRLPADRKIQDYRSAYNDIRDWQRREKEAEKKEKSTTDWDDVVFEVDLLKSQEINLDYILGLIFEHNRQNKGKGEMIEEVKRLIRSSLGNRAKEGLVVDFIQQTNLDDLPDKASIIDAFFTFAQREQQREAEALIKEENLNEDAAKRYIRTSLKREYATENGTELNETLPKLSPLNPQYKTKKQAVFQKIVSFIEKFKGVGGKI
# B3: EcoR124I HsdR Y183F (enzyme)
# chain: MTHQTHTIAESNNFIVLDKYIKAEPTGDSYQSESDLERELIQDLRNQGYEFISVKSQSAMLANVREQLQNLNGVVFNDSEWRRFTEQYLDNPSDGILDKTRKIHIDYICDFIFDDERLENIYLIDKKNLMRNKVQIIQQFEQAGSHANRYDVTILVNGLPLVQIELKKRGVAIREAFNQIHRFSKESFNSENSLFKYLQLFVISNGTDTRYFANTTKRDKNSFDFTMNWAKSDNTLIKDLKDFTATCFQKHTLLNVLVNYSVFDSSQTLLVMRPYQIAATERILWKIKSSFTAKNWSKPESGGYIWHTTGSGKTLTSFKAARLATELDFIDKVFFVVDRKDLDYQTMKEYQRFSPDSVNGSENTAGLKRNLDKDDNKIIVTTIQKLNNLMKAESDLPVYNQQVVFIFDECHRSQFGEAQKNLKKKFKRYYQFGFTGTPIFPENALGSETTASVFGRELHSYVITDAIRDEKVLKFKVDYNDVRPQFKSLETETDEKKLSAAENQQAFLHPMRIQEITQYILNNFRQKTHRTFPGSKGFNAMLAVSSVDAAKAYYATFKRLQEEAANKSATYKPLRIATIFSFAANEEQNAIGEISDETFDTSAMDSSAKEFLDAAIREYNSHFKTNFSTDSNGFQNYYRDLAQRVKNQDIDLLIVVGMFLTGFDAPTLNTLFVDKNLRYHGLMQAFSRTNRIYDATKTFGNIVTFRDLERSTIDAITLFGDKNTKNVVLEKSYTEYMEGFTDAATGEAKRGFMTVVSELEQRFPDPTSIESEKEKKDFVKLFGEYLRAENILQNYDEFATLKALQQIDLSDPVAVEKFKAEHYVDDEKFAELQTIRLPADRKIQDYRSAYNDIRDWQRREKEAEKKEKSTTDWDDVVFEVDLLKSQEINLDYILGLIFEHNRQNKGKGEMIEEVKRLIRSSLGNRAKEGLVVDFIQQTNLDDLPDKASIIDAFFTFAQREQQREAEALIKEENLNEDAAKRYIRTSLKREYATENGTELNETLPKLSPLNPQYKTKKQAVFQKIVSFIEKFKGVGGKI
# B4: EcoR124I HsdR Q179K (enzyme)
# chain: MTHQTHTIAESNNFIVLDKYIKAEPTGDSYQSESDLERELIQDLRNQGYEFISVKSQSAMLANVREQLQNLNGVVFNDSEWRRFTEQYLDNPSDGILDKTRKIHIDYICDFIFDDERLENIYLIDKKNLMRNKVQIIQQFEQAGSHANRYDVTILVNGLPLVQIELKKRGVAIREAFNKIHRYSKESFNSENSLFKYLQLFVISNGTDTRYFANTTKRDKNSFDFTMNWAKSDNTLIKDLKDFTATCFQKHTLLNVLVNYSVFDSSQTLLVMRPYQIAATERILWKIKSSFTAKNWSKPESGGYIWHTTGSGKTLTSFKAARLATELDFIDKVFFVVDRKDLDYQTMKEYQRFSPDSVNGSENTAGLKRNLDKDDNKIIVTTIQKLNNLMKAESDLPVYNQQVVFIFDECHRSQFGEAQKNLKKKFKRYYQFGFTGTPIFPENALGSETTASVFGRELHSYVITDAIRDEKVLKFKVDYNDVRPQFKSLETETDEKKLSAAENQQAFLHPMRIQEITQYILNNFRQKTHRTFPGSKGFNAMLAVSSVDAAKAYYATFKRLQEEAANKSATYKPLRIATIFSFAANEEQNAIGEISDETFDTSAMDSSAKEFLDAAIREYNSHFKTNFSTDSNGFQNYYRDLAQRVKNQDIDLLIVVGMFLTGFDAPTLNTLFVDKNLRYHGLMQAFSRTNRIYDATKTFGNIVTFRDLERSTIDAITLFGDKNTKNVVLEKSYTEYMEGFTDAATGEAKRGFMTVVSELEQRFPDPTSIESEKEKKDFVKLFGEYLRAENILQNYDEFATLKALQQIDLSDPVAVEKFKAEHYVDDEKFAELQTIRLPADRKIQDYRSAYNDIRDWQRREKEAEKKEKSTTDWDDVVFEVDLLKSQEINLDYILGLIFEHNRQNKGKGEMIEEVKRLIRSSLGNRAKEGLVVDFIQQTNLDDLPDKASIIDAFFTFAQREQQREAEALIKEENLNEDAAKRYIRTSLKREYATENGTELNETLPKLSPLNPQYKTKKQAVFQKIVSFIEKFKGVGGKI
# Target: EcoR124I MTase (M2S1 complex) (UniProt P10484)
# Sequence of UniProt P10484 (P10484 whole entry, chain 1 of 2): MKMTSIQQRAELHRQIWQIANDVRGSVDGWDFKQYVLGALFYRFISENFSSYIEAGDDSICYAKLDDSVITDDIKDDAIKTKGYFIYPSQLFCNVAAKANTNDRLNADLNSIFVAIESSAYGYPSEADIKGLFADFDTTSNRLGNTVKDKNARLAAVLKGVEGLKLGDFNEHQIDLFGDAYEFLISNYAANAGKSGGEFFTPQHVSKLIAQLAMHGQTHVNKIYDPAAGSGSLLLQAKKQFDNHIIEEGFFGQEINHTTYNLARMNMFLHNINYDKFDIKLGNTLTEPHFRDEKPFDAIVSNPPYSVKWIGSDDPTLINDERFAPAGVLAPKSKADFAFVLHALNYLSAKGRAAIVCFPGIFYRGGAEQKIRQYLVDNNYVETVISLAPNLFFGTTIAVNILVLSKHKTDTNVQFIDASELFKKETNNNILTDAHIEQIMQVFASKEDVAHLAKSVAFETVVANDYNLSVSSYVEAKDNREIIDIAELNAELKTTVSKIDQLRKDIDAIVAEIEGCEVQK
# Sequence of UniProt P10484 (P10485 whole entry, chain 2 of 2, further chain): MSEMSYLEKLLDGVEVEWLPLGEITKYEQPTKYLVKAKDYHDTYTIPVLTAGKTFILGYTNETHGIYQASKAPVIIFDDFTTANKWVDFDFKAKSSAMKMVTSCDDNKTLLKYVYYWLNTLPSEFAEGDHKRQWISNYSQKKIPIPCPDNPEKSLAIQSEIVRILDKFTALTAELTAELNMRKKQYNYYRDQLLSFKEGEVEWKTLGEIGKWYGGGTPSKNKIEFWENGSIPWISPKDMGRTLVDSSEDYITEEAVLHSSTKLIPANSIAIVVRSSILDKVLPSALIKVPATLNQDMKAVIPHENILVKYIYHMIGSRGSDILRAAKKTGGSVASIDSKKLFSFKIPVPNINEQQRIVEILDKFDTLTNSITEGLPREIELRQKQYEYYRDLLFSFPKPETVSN
# Assay: native gel or EMSA
row,Binder,"K1,app (first HsdR on the DNA-bound MTase, R1 complex)"
1,B1,15 nM
2,B2,15 nM
3,B3,14 nM
4,B4,10 nM
